Earlier results on three substances are cited in publication PMC3382066.

The target of series [1] is smooth muscle myosin (unphosphorylated) (Gallus gallus) (UniProt P10587).
For series [2], the target named is calmodulin (UniProt P0DP23).
The target of series [3] is smooth muscle myosin truncated fragment (UniProt P35749).

Where “and” joins values, the source holds several entries; their conditions need not be identical. Equal entries are not always repeated.

UniProt P35749, sequence (P35749 1-1175): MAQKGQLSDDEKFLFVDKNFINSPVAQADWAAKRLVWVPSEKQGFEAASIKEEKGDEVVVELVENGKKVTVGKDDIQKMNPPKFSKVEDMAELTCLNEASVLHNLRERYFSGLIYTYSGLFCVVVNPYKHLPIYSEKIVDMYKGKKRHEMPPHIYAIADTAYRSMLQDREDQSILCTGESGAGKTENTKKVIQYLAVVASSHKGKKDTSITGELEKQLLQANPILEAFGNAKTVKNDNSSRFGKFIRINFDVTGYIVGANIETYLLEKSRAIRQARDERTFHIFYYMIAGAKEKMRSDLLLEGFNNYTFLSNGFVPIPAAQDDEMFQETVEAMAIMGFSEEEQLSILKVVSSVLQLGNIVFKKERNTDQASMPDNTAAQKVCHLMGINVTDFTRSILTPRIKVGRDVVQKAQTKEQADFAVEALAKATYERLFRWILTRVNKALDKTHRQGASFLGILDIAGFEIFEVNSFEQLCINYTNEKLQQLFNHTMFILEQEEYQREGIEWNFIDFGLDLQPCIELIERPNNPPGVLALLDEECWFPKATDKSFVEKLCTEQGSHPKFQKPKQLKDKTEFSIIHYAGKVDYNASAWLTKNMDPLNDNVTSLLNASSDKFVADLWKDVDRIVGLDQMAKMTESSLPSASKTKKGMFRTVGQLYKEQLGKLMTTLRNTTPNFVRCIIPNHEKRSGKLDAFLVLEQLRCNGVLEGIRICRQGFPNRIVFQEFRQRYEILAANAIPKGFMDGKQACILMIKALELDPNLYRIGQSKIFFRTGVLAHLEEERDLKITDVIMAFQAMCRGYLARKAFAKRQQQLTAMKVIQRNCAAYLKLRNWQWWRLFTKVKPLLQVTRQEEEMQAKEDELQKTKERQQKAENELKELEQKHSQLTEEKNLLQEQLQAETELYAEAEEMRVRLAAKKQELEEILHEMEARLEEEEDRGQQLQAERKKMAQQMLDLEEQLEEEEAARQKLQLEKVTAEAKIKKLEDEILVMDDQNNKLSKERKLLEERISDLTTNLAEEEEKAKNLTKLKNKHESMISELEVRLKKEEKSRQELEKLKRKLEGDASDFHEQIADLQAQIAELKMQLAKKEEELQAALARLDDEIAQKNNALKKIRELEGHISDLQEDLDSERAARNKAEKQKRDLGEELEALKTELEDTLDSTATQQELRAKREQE
MLCK, sequence (P11799 935-1906): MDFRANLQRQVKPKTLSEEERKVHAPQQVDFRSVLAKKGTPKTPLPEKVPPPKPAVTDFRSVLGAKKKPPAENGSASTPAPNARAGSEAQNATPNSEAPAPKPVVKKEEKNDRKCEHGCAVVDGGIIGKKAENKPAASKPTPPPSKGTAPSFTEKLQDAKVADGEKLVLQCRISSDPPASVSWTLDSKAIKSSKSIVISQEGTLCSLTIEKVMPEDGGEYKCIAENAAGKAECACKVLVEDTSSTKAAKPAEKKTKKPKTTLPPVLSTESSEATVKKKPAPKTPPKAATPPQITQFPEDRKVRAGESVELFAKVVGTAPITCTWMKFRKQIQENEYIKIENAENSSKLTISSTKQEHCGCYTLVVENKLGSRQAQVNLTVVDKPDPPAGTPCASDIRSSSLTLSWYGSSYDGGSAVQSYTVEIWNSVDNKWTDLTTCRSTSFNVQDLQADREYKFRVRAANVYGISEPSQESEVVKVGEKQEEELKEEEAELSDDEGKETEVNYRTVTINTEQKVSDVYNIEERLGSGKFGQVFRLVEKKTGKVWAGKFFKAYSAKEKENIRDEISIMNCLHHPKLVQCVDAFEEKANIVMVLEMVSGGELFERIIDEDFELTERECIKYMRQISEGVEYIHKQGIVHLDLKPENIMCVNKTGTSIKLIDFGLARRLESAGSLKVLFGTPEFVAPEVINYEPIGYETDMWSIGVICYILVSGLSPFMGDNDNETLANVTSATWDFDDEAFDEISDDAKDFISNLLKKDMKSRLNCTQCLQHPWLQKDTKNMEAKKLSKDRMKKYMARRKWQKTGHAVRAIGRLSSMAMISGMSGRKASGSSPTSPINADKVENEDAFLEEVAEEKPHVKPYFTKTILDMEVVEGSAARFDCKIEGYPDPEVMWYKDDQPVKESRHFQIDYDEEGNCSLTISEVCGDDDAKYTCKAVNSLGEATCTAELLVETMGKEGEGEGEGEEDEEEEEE
UniProt P10587, sequence (P10587 2-1979): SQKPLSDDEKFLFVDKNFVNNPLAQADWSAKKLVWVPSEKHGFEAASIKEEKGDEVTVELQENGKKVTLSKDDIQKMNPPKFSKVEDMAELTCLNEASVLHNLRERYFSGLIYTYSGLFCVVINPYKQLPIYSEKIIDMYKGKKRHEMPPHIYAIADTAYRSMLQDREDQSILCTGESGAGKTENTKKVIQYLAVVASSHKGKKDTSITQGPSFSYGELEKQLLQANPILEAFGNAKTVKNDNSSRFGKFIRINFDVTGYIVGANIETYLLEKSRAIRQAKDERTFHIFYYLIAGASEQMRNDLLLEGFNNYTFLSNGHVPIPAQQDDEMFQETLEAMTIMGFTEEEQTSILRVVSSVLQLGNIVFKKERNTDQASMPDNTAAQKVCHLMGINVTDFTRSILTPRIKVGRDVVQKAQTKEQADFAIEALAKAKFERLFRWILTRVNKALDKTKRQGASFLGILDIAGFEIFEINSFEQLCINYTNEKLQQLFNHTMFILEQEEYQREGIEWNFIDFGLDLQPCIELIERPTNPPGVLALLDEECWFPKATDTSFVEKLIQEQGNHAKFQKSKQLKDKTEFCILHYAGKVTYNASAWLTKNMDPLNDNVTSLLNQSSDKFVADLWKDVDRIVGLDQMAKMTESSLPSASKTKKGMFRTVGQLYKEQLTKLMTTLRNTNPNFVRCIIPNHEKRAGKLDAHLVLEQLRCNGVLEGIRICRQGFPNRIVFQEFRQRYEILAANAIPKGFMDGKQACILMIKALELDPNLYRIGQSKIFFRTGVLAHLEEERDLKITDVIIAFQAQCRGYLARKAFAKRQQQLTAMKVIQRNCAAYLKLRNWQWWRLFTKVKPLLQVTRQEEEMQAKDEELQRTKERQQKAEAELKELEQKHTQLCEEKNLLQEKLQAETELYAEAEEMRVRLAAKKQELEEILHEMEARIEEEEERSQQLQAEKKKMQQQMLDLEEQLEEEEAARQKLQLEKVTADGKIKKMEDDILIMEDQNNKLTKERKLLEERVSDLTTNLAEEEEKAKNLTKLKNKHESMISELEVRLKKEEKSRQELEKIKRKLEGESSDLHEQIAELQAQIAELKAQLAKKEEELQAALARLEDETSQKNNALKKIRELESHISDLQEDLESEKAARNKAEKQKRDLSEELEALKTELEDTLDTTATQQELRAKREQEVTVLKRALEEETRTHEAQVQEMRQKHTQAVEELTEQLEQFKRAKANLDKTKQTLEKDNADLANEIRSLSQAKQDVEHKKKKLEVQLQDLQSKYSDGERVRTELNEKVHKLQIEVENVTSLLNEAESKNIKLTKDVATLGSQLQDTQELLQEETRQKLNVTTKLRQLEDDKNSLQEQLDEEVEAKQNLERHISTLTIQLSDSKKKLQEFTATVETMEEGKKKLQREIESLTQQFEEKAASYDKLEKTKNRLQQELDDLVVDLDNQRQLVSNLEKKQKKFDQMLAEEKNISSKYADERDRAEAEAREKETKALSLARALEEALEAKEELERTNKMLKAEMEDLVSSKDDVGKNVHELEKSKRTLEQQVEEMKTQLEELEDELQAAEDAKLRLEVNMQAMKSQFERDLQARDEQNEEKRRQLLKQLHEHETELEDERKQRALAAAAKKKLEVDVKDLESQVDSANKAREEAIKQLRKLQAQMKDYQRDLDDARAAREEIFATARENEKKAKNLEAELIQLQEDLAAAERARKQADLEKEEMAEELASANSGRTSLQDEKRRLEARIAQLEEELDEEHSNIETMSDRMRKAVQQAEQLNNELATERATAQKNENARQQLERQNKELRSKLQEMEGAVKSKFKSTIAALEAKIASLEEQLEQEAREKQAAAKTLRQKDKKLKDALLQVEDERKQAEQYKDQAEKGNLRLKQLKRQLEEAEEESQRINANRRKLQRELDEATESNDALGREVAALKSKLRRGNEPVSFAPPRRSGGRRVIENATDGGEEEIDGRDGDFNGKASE

Usually Kd stands for a measure of binding affinity in units of concentration. As to MLCK (from UniProt P11799), in series [1], the Kd was 0.8 µM.
Turning to “MLCK N-terminal actin-binding region (from UniProt Q15746)”, the Kd in series [2] is 5 µM.
Broadly, the Ki is the dissociation constant of the complex between target and ligand, obtained from inhibition or displacement. On to telokin telokin (from UniProt Q15746), for which the Ki in series [3] is 40 µM and 20 µM.
